Reference: US20140030286A1 (COMMISSARIAT A L ENERGIE ATOMIQUE ET AUX ENERGIES …, published 2014)

Columns and labels:
[1] = target: the molecule itself; assay: SDS-PAGE with and without 25 mM DTT, disulphide-linked homodimer (FIG. 12)
[2] = target: T1, In (derivative of In without His tag, co-expressed with HisJo) (Streptococcus pneumoniae); assay: electrospray mass spectrometry of the purified complex (measured 25589, calculated 25606.03; loss of 17 Da)
T1 construct: Expressed from MCSII of pETDuet (pETDuet-In, pETDuet-HisJoIn); also called In peptide
T1 chain: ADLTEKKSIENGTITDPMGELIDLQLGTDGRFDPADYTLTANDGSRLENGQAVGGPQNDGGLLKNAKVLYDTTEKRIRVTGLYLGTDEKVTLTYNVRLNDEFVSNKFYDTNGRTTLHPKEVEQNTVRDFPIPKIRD

HisIn = target: T2, HisIn (Streptococcus pneumoniae); assay: electrospray mass spectrometry of the purified complex (measured 26772, calculated 26788.16)
T2 construct: Recombinant, made in E. coli from pACYCDuet-HisIn; also called In peptide; In protein
T2 chain: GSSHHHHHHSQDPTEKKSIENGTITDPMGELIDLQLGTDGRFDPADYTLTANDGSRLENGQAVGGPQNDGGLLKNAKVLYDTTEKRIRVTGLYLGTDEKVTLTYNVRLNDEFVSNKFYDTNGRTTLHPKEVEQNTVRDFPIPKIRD

[3] = target: the molecule itself; assay: gel filtration (S200 10/300GL), self-association

B1: Jo-B1CK-In (other)
chain: MGSSHHHHHHSQDPSDQYPQTGTYPDVQTPYQIIKVDGSEKNGQHKALNPNPYERVIPEGTLSKRIYQVNNLDDNQYGIELTVSGKTVYEQKDGIPEISQRTTIVIQKQTFISQHSCVNSTELDELIQQIVAAINAGIIPLGNTSNQISKLTEKKSIENGTITDPMGELIDLQLGTDGRFDPADYTLTANDGSRLENGQAVGGPQNDGGLLKNAKVLYDTTEKRIRVTGLYLGTDEKVTLTYNVRLNDEFVSNKFYDTNGRTTLHPKEVEQNTVRDFPIPKIRD
notes: Circularised within the chain by the Jo-In isopeptide bond; Forms a disulphide-linked dimer through the cysteine of the B1CK loop; also called fusion Jo-B1CK-In; recombinant protein Jo-B1CK-In
binding result [1]: binds

B2: HisJo (peptide)
chain: GSSHHHHHHSQDPSDQYPQTGTYPDVQTPYQIIKVDGSEKNGQHKALNPNPYERVIPEGTLSKRIYQVNNLDDNQYGIELTVSGKTVYEQKD
notes: Recombinant, made in E. coli from pETDuet-HisJo; The Jo peptide is RrgA 144-218; the derivative has two more residues at each end; also called Jo peptide; Jo protein
binding result [2]: binds
binding result (HisIn): binds

B3: FusJoIn (other)
chain: GSSHHHHHHSQDPSDQYPQTGTYPDVQTPYQIIKVDGSEKNGQHKALNPNPYERVIPEGTLSKRIYQVNNLDDNQYGIELTVSGKTVYEQKDGSTPGSVTEKKSIENGTITDPMGELIDLQLGTDGRFDPADYTLTANDGSRLENGQAVGGPQNDGGLLKNAKVLYDTTEKRIRVTGLYLGTDEKVTLTYNVRLNDEFVSNKFYDTNGRTTLHPKEVEQNTVRDFPIPKIRD
notes: Single chain with the isopeptide bond inside the chain; Used as the control for the dimerisation of Jo-B1CK-In; also called FusJoIn complex; Jo-In fused via a linker of 7 amino acids
binding result [3]: no binding
